The record followed here is paper PMC9561264, “Direct hOGG1-Myc interactions inhibit hOGG1 catalytic activity and recruit Myc to its promoters under oxidative stress”.

Common to all, as to details: protein: recombinant; tags: N-terminal His6 (removed by protease where required); label: 5' AF647 (FP) or Cy3 (EMSA) on bottom strand; blunt
The target in data set [1] is T1, hOGG1 wild type (human, UniProt O15527 1-345). As to the kind of experiment: fluorescence polarisation; oxidising, pre-oxidised hOGG1; FP at 25°C with 5 nM labelled DNA; EMSA room temp 30 min, 15% native PAGE 0.5x TBE 4°C; interaction buffer 20 mM Tris-HCl pH 7.6, 200 mM NaCl (Fig. S12); reducing (5 mM DTT in EMSA) or oxidising (pre-oxidised hOGG1). (In general: Fluorescence polarisation rises when a labelled molecule tumbles more slowly, as on binding a larger partner.)

Data set [2] addresses T1, hOGG1 wild type. As to the kind of experiment: fluorescence polarisation; reducing; FP at 25°C with 5 nM labelled DNA; EMSA room temp 30 min, 15% native PAGE 0.5x TBE 4°C; interaction buffer 20 mM Tris-HCl pH 7.6, 200 mM NaCl (Fig. S12); reducing (5 mM DTT in EMSA) or oxidising (pre-oxidised hOGG1).
The target of data set [3] is T1, hOGG1 wild type. As to the kind of experiment: fluorescence polarisation; oxidising; FP at 25°C with 5 nM labelled DNA; EMSA room temp 30 min, 15% native PAGE 0.5x TBE 4°C; interaction buffer 20 mM Tris-HCl pH 7.6, 200 mM NaCl (Fig. S12); reducing (5 mM DTT in EMSA) or oxidising (pre-oxidised hOGG1).

T1 sequence (O15527 whole entry): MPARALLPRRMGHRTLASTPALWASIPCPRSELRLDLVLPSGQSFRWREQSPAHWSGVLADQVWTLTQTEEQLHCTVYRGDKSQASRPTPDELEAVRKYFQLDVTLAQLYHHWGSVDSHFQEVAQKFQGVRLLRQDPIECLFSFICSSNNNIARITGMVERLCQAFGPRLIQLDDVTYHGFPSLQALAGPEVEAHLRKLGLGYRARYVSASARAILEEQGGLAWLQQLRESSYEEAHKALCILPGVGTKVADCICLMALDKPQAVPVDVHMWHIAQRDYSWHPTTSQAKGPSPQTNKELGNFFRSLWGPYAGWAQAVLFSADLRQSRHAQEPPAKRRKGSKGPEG

B1: oxoG 48 bp (EMSA/FP) (dsDNA)
DNA 1: GCATGCCTCGAGTCTAGAGGTACCAGATCTGATCCTCTAGAGTCGACC
DNA 2: GGTCGACTCTAGAGGATCAGATCTGGTACCTCTAGACTCGAGGCATGC
modifications: 8-oxoguanine at position 10 of strand 1 (written G)
One may read the Kd as the equilibrium constant for the complex coming apart. As to B1, the dissociation constant (Kd) with hOGG1 wild type [1] was 140 ± 9 nM; with hOGG1 wild type [2], 66 ± 5 nM.

B2: undamaged (nsp) 48 bp (dsDNA)
DNA 1: GCATGCCTCGAGTCTAGAGGTACCAGATCTGATCCTCTAGAGTCGACC
DNA 2: GGTCGACTCTAGAGGATCAGATCTGGTACCTCTAGACTCGAGGCATGC
As for B2, the Kd was found to be 250 ± 18 nM with hOGG1 wild type [3] and 252 ± 43 nM with hOGG1 wild type [2].
